Where a chain is given by its changes, count along the chain named. Where two headings read alike, the source gives them in different places.
Experiments:
[1] = target: T1, human Trop-2 on Trop-2 positive cancer cells (human, UniProt P09758 27-323); assay: cell-based or functional assay
T1 sequence (looked up): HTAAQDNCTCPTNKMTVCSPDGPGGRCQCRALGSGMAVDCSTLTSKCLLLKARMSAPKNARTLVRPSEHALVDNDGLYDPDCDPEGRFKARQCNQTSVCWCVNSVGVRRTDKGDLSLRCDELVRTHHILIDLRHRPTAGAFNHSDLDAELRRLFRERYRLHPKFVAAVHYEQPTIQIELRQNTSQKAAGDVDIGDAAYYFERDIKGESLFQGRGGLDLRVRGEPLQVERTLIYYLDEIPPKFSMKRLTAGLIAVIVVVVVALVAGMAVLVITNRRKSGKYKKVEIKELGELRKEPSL

[2] = target: T2, human Trop-2-ECD-6His fusion protein (human, UniProt P09758 27-274); assay: antigen binding ELISA on immobilized human Trop-2-ECD-6His
T2 construct: Expressed in a human 293 cell line; also called huTrop-2; human Trop-2 antigen
T2 sequence: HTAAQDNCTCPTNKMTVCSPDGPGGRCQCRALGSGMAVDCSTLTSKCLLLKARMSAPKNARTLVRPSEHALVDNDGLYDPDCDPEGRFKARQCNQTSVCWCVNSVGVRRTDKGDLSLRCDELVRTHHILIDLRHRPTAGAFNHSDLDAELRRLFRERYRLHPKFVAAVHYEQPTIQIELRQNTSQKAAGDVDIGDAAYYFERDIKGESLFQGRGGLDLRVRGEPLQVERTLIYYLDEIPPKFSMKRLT

[3] = target: T2, human Trop-2-ECD-6His fusion protein; assay: as above; remark: listed apart in the source
[4] = target: T2, human Trop-2-ECD-6His fusion protein; assay: BLI (Octet), antibody at 8 ug/ml, human Trop-2ECD-6His at 3.125-50 nM
Protocol: The binding affinity of the purified anti-Trop-2 IgGs to human Trop-2 protein were determined by Octet system based on Bio-Layer Interferometry (BLI) technique. BLI is a layer of molecules attached to the tip of an optic fiber which creates an interference pattern at the detector, any change in the number of molecules bound causes a measured shift in the pattern. Octet system enables real-time analysis for determination of affinity and kinetics from biomolecular interactions in 96-well microplates. […] A1X4 or A1,2X4 antibody was diluted and added to the assigned wells at a final concentration 8 µg/ml. The plate was put in the Octet system and assay was started. The data was analyzed using the Octet Data Acquisition Software (fortebio data analysis 10.0) to calculate an association rate constant Kon, a dissociation rate constant Koff, and a dissociation constant Kd (Kd = Koff/Kon).

[5] = target: T1, human Trop-2 on Trop-2 positive cancer …; assay: flow cytometry on MDA-MB-468 cells, MFI at 4 °C against the antibody concentration (about 400 to 10000 ng/ml); Kd (µg/ml) printed beside the legend
Protocol: Internalizationi and degradation of anti-Trop-2 antibodies was measured by flow cytometry. In this study, fluorescent-conjugated secondary antibodies were used to detect the primary antibodies left on after internalization.
Next, either hRS7, or A1X4, or A1,2X4 antibody was added to cells in FACS buffer at concentrations of 400, 1000, 3000, or 10000 ng/ml, respectively, and incubated for 30 minutes at 4° C. After incubation, the cells were washed three times with FACS buffer to removed unbound antibody. The cells were then incubated at 37° C. with 5% CO₂ for antibody internalization. After 2 hours, the cells were dissociated with Trypsin and stained with fluorescent-conjugated goat anti-human IgG secondary antibodies for 30 minutes on ice in dark before being analyzed using Beckman flow cytometry system. The fluorescent intensity and cell binding percentage at each time point were analyzed by Beckman flow cytometric software. The amount of anti-Trop-2 antibodies internalized into cells at each concentration was determined using the following formula: % internalization rate = 100 × (MFI₄°C- MFI₃₇°C) / MFI₄°C

[6] = target: T1, human Trop-2 on Trop-2 positive cancer …; assay: cell-based or functional assay; remark: listed apart in the source
[7] = target: T1, human Trop-2 on Trop-2 positive cancer …; assay: cell-based or functional assay; remark: listed apart in the source
[8] = target: T3, human Trop-2-ECD-6His fusion protein (Homo sapiens, UniProt P09758); assay: Antigen binding assay (ELISA) on immobilized Trop-2-ECD-6His
T3 construct: made in house; host or cells: human 293 cell line
T3 sequence (P09758 with tags, fused parts or gaps): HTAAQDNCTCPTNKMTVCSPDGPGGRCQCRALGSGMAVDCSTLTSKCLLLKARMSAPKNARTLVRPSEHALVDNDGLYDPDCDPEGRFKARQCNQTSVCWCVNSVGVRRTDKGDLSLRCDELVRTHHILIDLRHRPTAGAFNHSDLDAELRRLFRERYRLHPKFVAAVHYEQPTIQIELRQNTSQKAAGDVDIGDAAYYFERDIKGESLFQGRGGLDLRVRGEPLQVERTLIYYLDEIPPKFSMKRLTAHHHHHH

[9] = test system: Trop-2 positive breast cancer cell line MDA-MB-468; assay: Internalization assay by flow cytometry (Example 2 protocol); format: cell-based, human; conditions: Table 9; second round of humanization of #118-2-5
Protocol: The chimeric IgG1 #118-2-5 and #125-1-5 were further evaluated by internalization assay using Trop-2 positive breast cancer cell line MDA-MB-468. MDA-MB-468 cells were seeded at 1×10^5 cell/well. Next, the chimeric or benchmark IgGs were added to cells in FACS buffer and incubated for 2 hours at 4° C. After incubation, the cells were washed to remove unbound antibody. The cells were then incubated at 37° C. After 2 hours, the cells were dissociated and stained with fluorescent-conjugated […] secondary antibodies for 30 minutes on ice in dark before being analyzed using Beckman flow cytometry system. The fluorescent intensity and cell binding percentage at each time point were analyzed by Beckman flow cytometric software. The amount of chimeric IgGs internalized into cells was determined using the following formula: % internalization rate = 100 × (MFI4°C - MFI37°C) / MFI4°C.

mouse Trop-2-His = target: T4, mouse Trop-2-His (mouse, UniProt Q8BGV3 25-270); assay: ELISA on coated antigen, one antibody dilution (concentration not given); on the sheet OD405, detected by GAM/H-AP
T4 sequence (looked up): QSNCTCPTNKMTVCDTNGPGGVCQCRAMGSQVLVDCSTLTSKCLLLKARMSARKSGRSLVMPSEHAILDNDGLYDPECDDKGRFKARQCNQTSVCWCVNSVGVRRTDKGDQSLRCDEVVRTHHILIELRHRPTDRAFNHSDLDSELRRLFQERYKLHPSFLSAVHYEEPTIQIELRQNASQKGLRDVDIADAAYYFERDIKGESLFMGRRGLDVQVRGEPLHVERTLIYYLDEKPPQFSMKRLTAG

human EPCAM-His = target: T5, human EPCAM-His (human, UniProt P16422 24-265); assay: as above
T5 construct: also called hEPCAM
T5 sequence (looked up): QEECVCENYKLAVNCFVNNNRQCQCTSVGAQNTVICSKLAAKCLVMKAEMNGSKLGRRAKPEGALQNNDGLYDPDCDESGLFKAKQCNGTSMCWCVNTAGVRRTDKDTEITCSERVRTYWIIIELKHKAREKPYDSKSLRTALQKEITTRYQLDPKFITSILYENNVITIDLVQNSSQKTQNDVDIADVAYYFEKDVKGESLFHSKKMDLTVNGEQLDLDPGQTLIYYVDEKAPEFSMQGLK

[10] = Table 10, humanized #125-1-5 antibodies

B1: benchmark antibody hRS7 (antibody, V domains shown)
VH: QVQLQQSGSELKKPGASVKVSCKASGYTFTNYGMNWVKQAPGQGLKWMGWINTYTGEPTYTDDFKGRFAFSLDTSVSTAYLQISSLKADDTAVYFCARGGFGSSYWYFDVWGQGSLVTVSS
VL: DIQLTQSPSSLSASVGDRVSITCKASQDVSIAVAWYQQKPGKAPKLLIYSASYRYTGVPDRFSGSGSGTDFTLTISSLQPEDFAVYYCQQHYITPLTFGAGTKVDIK
[1]
  Internalization rate (flow cytometry, MDA-MB-468 cells): 23.9%
[2]
  EC50: 90 pM
[3]
  EC50: 62 pM
[4]
  Kd: 780 pM
  koff: 0.000244 s⁻¹
[5]
  Kd: 0.78 µg/mL
[6]
  Internalization rate (flow cytometry, MDA-MB-468 cells): 10.9%

B2: A1X4-MMAE antibody-drug conjugate (antibody, V domains shown)
VH: QVQLQESGPGLVKPSETLSLTCTVSGFSLTSYGVNWIRQPPGKGLEWIGVMWAGGSTNYNSALMSRVTISVDTSKNQFSLKLSSVTAADTAVYYCARDENWDGAWFAYWGQGTLVTVSS
VL: DIVMTQSPDSLAVSLGERATINCKSSQSLLNSGTRKNYLAWYQQKPGQPPKLLISWASSRESGVPDRFSGSGSGTDFTLTISSLQAEDVAVYYCKQSYNLFTFGGGTKVEIKR
modifications: mc-vc-PABA-MMAE on the reduced antibody; chain and positions not stated
[7]
  in vitro cytotoxicity IC50, Trop-2-high BxPC-3 cells: < 1000 pM

B3: HuA/Lu(X3): humanized #118-2-5, heavy chain HuA (SEQ ID NO: 23) with light chain Lu(X3) (SEQ ID NO: 36) (antibody, V domains shown)
VH: B2 VH
VL: DIVMTQSHKFISTSVGDRVSITCKASQDVDTAVAWYQQKPGQSPKLLIHWASTRHTGVPDRFTGGGSGTDFTLTLSNVQSEDLADYFCQQYSTFPWTFGGGTRLEIK
[8]; Table 8, second round of humanization of #118-2-5
  EC50: 450 pM
[9]
  Internalization rate: 13.22%

B4: A1,2X4-MMAE antibody-drug conjugate (antibody, V domains shown)
VH: B2 VH with V67L, V71K
VL: B2 VL
modifications: mc-vc-PABA-MMAE on the reduced antibody; chain and positions not stated
[7]
  in vitro cytotoxicity IC50, all cells that express different levels of Trop-2: < 1000 pM

B5: murine-human chimeric IgG1 #125-1-5 (antibody, V domains shown)
VH: QIQLVQSGPELVKPGASVKMSCKASGYTFTTYVIHWVKQKPGQGLEWIGYINPNNDGTKYNEKFKGKATLISDKSSTTAYMEVRGLTSEDSAVYYCARPHFETHAMDYWGQGTSVTVSS
VL: DIQMTQSPSSFSVSLGDSVTITCKASEDIFNRLAWYQQKPGNAPRLLISGATSLETGVPSRFSGGGSGKEYTLSITSLQNEDVATYYCQQYWNTWTFGGGTKLEIKR
notes: Chimeric IgG1 expressed in HEK293-6E cells
Mouse Trop-2-His
  binding result: no binding
Human EPCAM-His
  binding result: no binding

B6: #125-1-5 mouse H14-4/L3-4: parental mouse #125-1-5 heavy/light chains H14-4/L3-4, comparator of the humanized IgGs (antibody, V domains shown)
VH: B5 VH
VL: DIQMTQSPSSFSVSLGDSVTITCKASEDIFNRLAWYQQKPGNAPRLLISGATSLETGVPSRFSGGGSGKEYTLSITSLQNEDVATYYCQQYWNTWTFGGGTKLEIK
[8]; [10]
  EC50: 4 pM

B7: humanized #125-1-5 Hu1/Lu5 (antibody, V domains shown)
VH: QVQLVQSGAEVKKPGASVKVSCKASGYTFTTYVIHWVRQAPGQRLEWMGYINPNNDGTKYNEKFKGRVTITRDTSASTAYMELSSLRSEDTAVYYCARPHFETHAMDYWGQGTLVTVSS
VL: DIQMTQSPSSLSASVGDRVTITCKASEDIFNRLAWYQQKPGKAPKLLLYGATSLETGVPSRFSGSGSGTDYTLTISSLQPEDFATYYCQQYWNTWTFGQGTKVEIK
[8]; [10]
  EC50: 16 pM
[1]
  Internalization rate (flow cytometry, MDA-MB-468 cells): 49.7%

B8: murine-human chimeric IgG1 #118-2-5 (antibody, V domains shown)
VH: QVQLKQSGPGLVAPSQSLSITCTVSGFSLTSYGVNWIRQPPGKGLEWLGVMWAGGSTNYNSALMSRLSISKDNSKSQVFLKMNSLQTDDTGMYYCARDENWDGAWFAYWGQGTLVTVSA
VL: DIQMTQSPSSLAVSAGEKVTMSCKSSQSLLNSGTRKNYLAWYQQKPGQSPKLLISWASSRESGVPDRFTGSGSGTDFTLTISSVQAEDLAVYYCKQSYNLFTFGGGTKLELKR
notes: as for B5
Mouse Trop-2-His
  binding result: no binding
Human EPCAM-His
  binding result: no binding
